Data: the Human Domainome abundance scans (Beltran et al. 2025)

B1: Transcription elongation regulator 1-like protein, residues 448 to 504; numbered along this chain, Q5VWI1 (parent)
chain: LPLEERVTHFRDMLLERGVSAFSTWEKELHKIVFDPRYLLLNSEERKQIFEQFVKTR
B2: Ankyrin-2, residues 3571 to 3650; numbered along this chain, Q01484 (parent)
chain: ERLAYIADHLGFSWTELARELDFTEEQIHQIRIENPNSLQDQSHALLKYWLERDGKHATDTNLVECLTKINRMDIVHLME

Variants of: B1
Test: abundance fitness (aPCA) (normalised: wild type 0, dead -1); higher = more abundant; growth selection in yeast, the domain comes from the species named
Conditions: Homo sapiens

Abundance fitness of substitutions, site by site:
L3: W -0.116, M 0.309, V 0.28, S -0.704, G -0.214, P -0.212, Q 0.591, C -0.857, D -0.135, R 0.304, Y 0.138, E 0.132, I 0.427, N -0.031, F 0.04, K 0.487, H 0.663, A -0.337
E5: M -0.254, G -0.195, C -0.303, P -0.697, F -0.481, K -0.535, I -0.06, L -0.565, A -0.73
P2: C 0.766, N 1.18, A 0.331, R 0.776, W 0, S 1.09, D 1.26, L -0.147, K 0.925, T 1.24, V -0.031, Q 0.364, E 0.88
E4: N 0.154, M -0.646, C -0.458, A -0.368, S 0.033, P -0.711, K 0.132, L -0.151, R -0.867, T -0.631
L1: W -0.717, S -0.082, F 0.408, A -0.321, I 2.04, V -0.4

Variants of: B2
Test: as above
Conditions: Homo sapiens

Abundance fitness of substitutions, site by site:
L67: E -0.643, F -0.591, T -1.16, R -1.09, A -0.224, G -0.84, H -0.838, C -0.153, I -0.199, W -0.832, Y -0.754, M -0.249, P -0.875
T59: N -0.054, W -0.099, M -0.124, K -0.025, S 0.036, Y 0.121, F -0.159, E -0.069, H -0.055, Q 0.008, R -0.087, V -0.106, L -0.04, G -0.088
E65: K -0.086, Q -0.017, Y 0.097, T 0.031, A -0.012, S -0.056, P 0.015, V -0.099, G 0.014, I 0.143, D 0.193, F -0.184, C -0.147, N -0.231, H -0.059, R -0.011, M -0.243, W -0.246, L -0.072
M73: R 0.018, V 0.035, T -0.092, P -0.134, C 0.226, L 0.04, G -0.165
I75: S -0.54, C -0.297, M 0.076, R -0.609, V 0.136, A 0.011, E -0.031, G -0.263, F -0.371
T61: M -0.427, F -0.063, G -0.011, A -0.102, I 0.027, Y -0.087, H -0.038, E -0.07, K -0.286, R -0.118, N -0.244, L 0.084, P 0.029, Q -0.093, D -0.017, V 0.112
N62: W 0.012, M 0.018, Y -0.135, D 0.051, R -0.013, P -0.079, L 0.004, Q -0.082, E -0.089, A -0.001, T -0.029, H 0.015, S 0.007, F -0.181, I -0.169, K -0.374, G 0.072, V 0.035
V76: Q -0.107, K -0.467, M -0.099, L -0.081, A -0.091, R -0.223, N -0.249, P -0.226, T -0.223, E -0.063, F -0.102, C -0.027, I 0.04, H -0.084, Y -0.196, G -0.216, S -0.219, W -0.05
D74: K -0.348, R -0.707, S -0.593, Q -0.435, L -0.849, N -0.577, G -0.678, A -0.515, W -0.573, T -0.793, I -0.692, Y -0.862, E -0.151, H -0.563, F -0.971, M -0.839, P -0.471, V -0.682
M79: K -0.23
D60: M 0.019, K -0.092, C -0.043, F 0.074, P -0.069, Y -0.151, I -0.104, L -0.022, S -0.105, G -0.115, A -0.07, E -0.041, R -0.082, H -0.286, N -0.375, Q -0.018, T -0.016, W -0.067
K69: R 0.005, F -0.126, W -0.306, S -0.049, C -0.094, T -0.032, P -0.545, D -0.094, A 0.001, V -0.027, L -0.059, E -0.054, I -0.121, M -0.068, N 0.012, Q 0, G -0.06, Y -0.017
V64: T 0.025, Q -0.065, P -0.266, M 0.007, D -0.206, S -0.011, C -0.134, A -0.019, E 0.079, W -0.165, R 0.01, G -0.108, L -0.016, N -0.369, I 0.009, Y -0.041, F -0.073
T68: I -0.122, Y -0.136, R -0.071, E 0.047, N -0.231, H 0.068, A -0.057, K -0.044, M -0.102, S -0.147, P -0.098, F 0.041, G -0.039, V -0.001
C66: N -0.092, K 0.014, M 0.009, P 0.065, G -0.045, A -0.016, R 0.001, H 0.009, T -0.078, L -0.126, W -0.058, Y -0.27, E 0.091, V 0.034, Q -0.018, S -0.013, F -0.035, D -0.363, I -0.143
I70: M -0.002, W -0.789, N -0.693, L -0.065, R -0.551, Q -0.382, T -0.226, D -0.533, G -0.663, P -1.06, A -0.099, C -0.113, V -0.035, E -0.305, H -0.334, K -0.784
L63: F -0.143, C -0.044, H -0.777, T -0.408, M 0.022, P -0.651, W -0.205, Q -0.885, A -0.11, V -0.091, K -0.677, Y -0.139, R -0.935, S -0.634, E -0.657, I 0.07, G -0.624
N71: M -0.167, S -0.028, E -0.153, D -0.054, Y -0.476, F -0.343, A 0.021, L -0.196, K -0.078, C -0.064, T -0.18, R -0.031, G -0.014, H -0.163, V -0.252, W -0.355, P -0.135
R72: L -0.187, A -0.205, V -0.568, T -0.331, Q -0.137, S 0.223, G -0.204, W -0.659, P -0.588
